Data reported in patent publication US20090062512A1, “Comparative ligand mapping from MHC class I positive cells” (priority 2000, published 2009).

What was measured:
Assay type in all cases: cell-based
[1] = target: A*0201 class I MHC molecules in cells infected with the PR8 strain of influenza A virus (Homo sapiens, UniProt P04439, D140Y/D185E/D98H/E176V/E277Q/G131W/G231S/I119V/I121R/I166T/I218V/L300P/L318F/N151K/N90K/P208A/P217A/Q86G/Q94H/R138H/R169H/T345S)
[2] = target: B*0702 class I MHC molecules in cells infected with the PR8 strain of influenza A virus (Homo sapiens, UniProt P01889)
[3] = target: sHLA-A*0201 from MCF-7, MDA-MB-231, BT-20 and MCF10A (Homo sapiens, UniProt P04439, D140Y/D185E/D98H/E176V/E277Q/G131W/G231S/I119V/I121R/I166T/I218V/L300P/L318F/N151K/N90K/P208A/P217A/Q86G/Q94H/R138H/R169H/T345S); assay: MS comparative analysis of sHLA-A*0201 peptides, breast cancer cell lines vs nontumorigenic MCF10A; conditions: for FOLD INCREASE BT-20 over MCF10A / FOLD INCREASE MCF-7 over MCF10A / FOLD INCREASE MDA-MB-231 over MCF10A: peptide epitope presented on sHLA-A*0201; for FOLD INCREASE BT-20 over MCF10A: BT-20 vs nontumorigenic MCF10A; for FOLD INCREASE MCF-7 over MCF10A: MCF-7 vs nontumorigenic MCF10A; for FOLD INCREASE MDA-MB-231 over MCF10A: MDA-MB-231 vs nontumorigenic MCF10A

Substance | Fold Increase [1] | Fold Increase [2] | further results
KLIGDPNLEFV | 2.82 | – | –
KLLDFGSLSNL | 3.57 | – | –
KLLEGEESRISL | 2.1 | – | –
KLMELHGEGSS | Unique | – | –
KLQEFLQTL | 2.3 | – | –
KMLEKLPEL | 2.14 | – | –
KMWDPHNDPNA | Unique | – | –
KMYEEFLSKV | 1.8 | – | –
KPQDYKKR | – | 2.9 | –
KVFDPVPVGV | 1.74 | – | –
KVPEWVDTV | 5.94 | – | –
LLDANLNIKI | 2.78 | – | –
LLDVPTAAV | 5.18 | – | –
LLDVTPLSL | 9.68 | – | –
LLDVVHPA | 33.09 | – | –
LLDVVHPAA | 3.43 | – | –
LLLDVPTAAV | 1.95 | – | –
LLLDVPTAAVQA | 6.24 | – | –
LLPGENINLL | – | 7.13 | –
LLQEVEHQL (listed as Homo sapiens) | – | – | presentation by HLA A*0201 of tumorigenic vs nontumorigenic cell lines ([3]; MCF-7, MDA-MB-231, BT-20 vs MCF10A): found only in the MCF-7 peptide pool
LMTTVHAITAT | Unique | – | –
LPKPPGRGV | – | 1.9 | –
LPRGSSPSVL | – | 1.57 | –
LPSSGRSSL | – | 2 | –

Substance | Fold Increase [1] | Fold Increase [2] | further results
LVFQPVAEL | – | 4.33 | –
NDHFVKL | 7.75 | – | –
NLGSPRPL | – | 5.6 | –
NLPLSNLAI | – | 4.3 | –
NPASKVIAL | – | 1.64 | –
PKFEVIEKPQA | – | 3.6 | –
QLLGSAHEV | 4.98 | – | –
RIVPRFSEL | – | 1.54 | –
RLDDVSNDV | 2.55 | – | –
RLIDLGVGL | 2.03 | – | –
RLTPKLMEV | 2.2 | – | –
RLWPKIQGL | Unique | – | –
RLYPWGVVEV | 2.79 | – | –
RPAGKGSITI | – | 1.8 | –
RPGLKNNL | – | 1.5 | –
RPKANSA | – | 1.8 | –
RPPPIGAEV | – | 2.9 | –
RPQGGQDIL | – | 2.24 | –
RPSGKGIVEF | – | 13.7 | –
RPTGGVGAV | – | 2.7 | –
RVEPLRNEL | – | 1.95 | –
RVPPPPPIA | 6.54 | – | –
SIIGRLLEV | 56.92 | – | –
SLAKIYTEA | 5.38 | – | –

Substance | Fold Increase [1] | Fold Increase [2] | further results
SLDQPTQTV | 9.84 | – | –
SLFEGTWYL | 2.36 | – | –
SLFGGSVKL | – | – | FOLD INCREASE BT-20 over MCF10A [3]: 1.3; FOLD INCREASE MCF-7 over MCF10A [3]: 5; FOLD INCREASE MDA-MB-231 over MCF10A [3]: 2.6
SLFPGKLEV | – | – | FOLD INCREASE BT-20 over MCF10A [3]: 2; FOLD INCREASE MCF-7 over MCF10A [3]: 5; FOLD INCREASE MDA-MB-231 over MCF10A [3]: 2.2
SLLDIIEKV | 2.56 | – | –
SLWSIISKV | 3.06 | – | –
SLYEMVSRV | 1.87 | – | –
SMLEDVQRA | 2.4 | – | –
SMMDVDHQI | 3.58 | – | –
SMPDFDLHL | 1.83 | – | –
SMTLAIHEI | 2.11 | – | –
SPAKIHVF | – | 2.8 | –
SPGIPNPGAPL | – | 1.84 | –
SPGPPTRKL | – | 1.9 | –
SPKIRRL | – | 1.63 | –
SPPSKPTVL | – | 1.9 | –
SPQEDKEVI | – | 4.19 | –
SPRSGLIRV | – | 1.53 | –
SPVPSRPL | – | 2.91 | –
TIAQLHAV | Unique | – | –
TLAEIAKVEL | 3.32 | – | –
TLAEVERLKGL | Unique | – | –
TLAKYLMEL | 6.81 | – | –
TLDEYTTRV | 3.74 | – | –

Substance | Fold Increase [1] | Fold Increase [2] | further results
TLIDLPGITKV | 6.48 | – | –
TLIGLSIKV | 2.28 | – | –
TLLEDGTFKV | 1.67 | – | –
TLQEVFERATF | Unique | – | –
TLWDIQKDLK | 1.64 | – | –
TLWGIQKEL | 3.27 | – | –
TLWPEVQKL | 2.97 | – | –
TPEQIFQN | – | 1.51 | –
TQFVRFDSD | – | 1.64 | –
VFLKPWI | – | 1.62 | –
VINDVRDIFL | 1.71 | – | –
VLEDPVHAV | 3.91 | – | –
VLFDVTGQVRL | 2.48 | – | –
VLLSDSNLHDA | 10.95 | – | –
VMDSKIVQV | 22.84 | – | –
VVQDGIVKA | Unique | – | –
YAYDGKDYI | Unique | – | –
YAYDGKDYIA | 1.6 | – | –
YLDIKGLLDV | 2.44 | – | –
YLDKVRALE | Unique | – | –
YMEEIYHRI | 3.98 | – | –
YPFKPPKVAF | – | 3.27 | –
YPKRPLLGL | – | 1.61 | –
YQFTGIKKY | – | 2.3 | –
